Data on two substances can be found in publication PMC3751566.

Test [1] concerns the target syntaxin4 (UniProt P70452). Nature of the test: syntaxin4 IP, Munc18c blot (reciprocal). Conditions: reference: wild type Munc18c (WT and R cells), insulin.
Test [2] has as its target syntaxin4 (UniProt P70452). Nature of the test: Munc18c IP, syntaxin4 blot. Conditions: reference: wild type Munc18c (WT and R cells), insulin.

Regarding “Munc18c (from UniProt Q60770) Y218/219F, insulin”, the “binding against the reference” value with syntaxin4 [1] (sites Y218,Y219) and with syntaxin4 [2] (sites Y218,Y219) was “stronger” in each case.

Regarding “Munc18c (from UniProt Q60770) Y521F, insulin”, the “binding against the reference” value in the test with syntaxin4 [1] (sites Y521) and with syntaxin4 [2] (sites Y521) was “stronger” throughout.
